The text below walks through data of publication PMC11063326, “2-oxoglutarate-dependent dioxygenases and BAHD acyltransferases drive the structural diversification of orobanchol in Fabaceae plants” (Frontiers in Plant Science, 2024).

Substrate in this data set: CC1=C[C@H](O/C=C2/C(=O)O[C@@H]3[C@H]2[C@@H](O)[C@]24CCCC(C)(C)[C@]32O4)OC1=O
In words: product formation (fabacyl acetate) by LC-MS/MS, crude recombinant enzyme. The class given is biochemical, Lathyrus oleraceus. The settings on record: 200 μM acetyl-CoA, 50 mM citrate pH 6.0, 30°C. From the text:
product formation (fabacyl acetate) by LC-MS/MS, crude recombinant enzyme on PsFAT (fabacol acetyltransferase, Psat7g079960)

B1: PsFAT (fabacol acetyltransferase, Psat7g079960) (Lathyrus oleraceus) (protein)
chain: MEMEIISREFIKPSSPTPPHLRNFPISFIDHITFRYYVPLLFFYNDTKVSDQKSKISHLKSSLSQILSIYYPFAGRFKDQRSIECNDQGVLFLVANITGIKLSTILENPDEKLFDHLFPDQLQWKLMEWNESILVVQINCFACGGIVISVCTCHKIIDATTAFNFVNDWSKLNREQESESKSTSASLLPYNLLYAGDTIFSLGNLPKFPEVDFAIDKTIVCKRFVFEASKIKLLKNLVNFNSHVVENPTRVEVITALIYKCVVSTLGLNFKTTSLQIAVNLRKRMIPPLSNKCVGNLVWILFVMNPELHDLVFRIRQGLSEFCEVYPKKFGGKEKDSSFICECLKQVTTRVSESDNNQSLIAYASWCKFPMYEADFGWGKPIWVTTSACPARNAVILMDTRDGDGIEVIVSMKKNDMVRFECDVELLQYASVNPSITS
notes: complete CDS from root cDNA, modified pCold III, E. coli BL21(DE3) with GroES/GroEL; crude E. coli extract
Take B1: the Km amounted to 0.287 ± 0.076 µM and the Vmax was found to be 0.00745 µM/min.
